How the values were obtained:
CNNM2-S269P (mouse) = target: T1, CNNM2-S269P (mouse) (UniProt Q3TWN3)
T1 sequence: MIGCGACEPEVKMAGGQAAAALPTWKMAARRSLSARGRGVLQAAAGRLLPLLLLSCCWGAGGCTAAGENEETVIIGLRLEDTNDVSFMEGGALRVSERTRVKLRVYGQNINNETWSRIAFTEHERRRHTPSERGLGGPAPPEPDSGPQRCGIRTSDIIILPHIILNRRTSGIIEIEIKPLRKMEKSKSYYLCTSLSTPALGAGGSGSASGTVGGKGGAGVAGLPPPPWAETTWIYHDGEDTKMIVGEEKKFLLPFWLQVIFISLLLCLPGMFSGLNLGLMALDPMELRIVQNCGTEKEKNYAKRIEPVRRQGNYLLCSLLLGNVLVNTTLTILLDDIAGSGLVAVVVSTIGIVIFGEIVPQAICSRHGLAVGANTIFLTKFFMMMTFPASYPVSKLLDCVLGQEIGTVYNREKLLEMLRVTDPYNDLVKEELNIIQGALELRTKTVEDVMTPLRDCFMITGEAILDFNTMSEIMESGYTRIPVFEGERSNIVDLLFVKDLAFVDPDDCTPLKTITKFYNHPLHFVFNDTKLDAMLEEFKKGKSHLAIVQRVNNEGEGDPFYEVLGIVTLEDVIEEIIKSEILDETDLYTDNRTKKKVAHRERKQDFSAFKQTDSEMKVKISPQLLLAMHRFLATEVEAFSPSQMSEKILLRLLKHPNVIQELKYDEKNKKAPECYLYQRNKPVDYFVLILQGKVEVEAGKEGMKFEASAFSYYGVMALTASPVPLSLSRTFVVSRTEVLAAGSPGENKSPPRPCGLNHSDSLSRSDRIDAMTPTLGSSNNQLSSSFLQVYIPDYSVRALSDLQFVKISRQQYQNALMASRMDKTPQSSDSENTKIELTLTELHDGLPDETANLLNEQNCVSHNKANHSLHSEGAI

[1] = target: T2, FLAG-tagged CNNM2 lacking the CBS-pair domain, CNNM2-ΔCBS(469–578) (mouse) (UniProt Q3TWN3)
T2 sequence: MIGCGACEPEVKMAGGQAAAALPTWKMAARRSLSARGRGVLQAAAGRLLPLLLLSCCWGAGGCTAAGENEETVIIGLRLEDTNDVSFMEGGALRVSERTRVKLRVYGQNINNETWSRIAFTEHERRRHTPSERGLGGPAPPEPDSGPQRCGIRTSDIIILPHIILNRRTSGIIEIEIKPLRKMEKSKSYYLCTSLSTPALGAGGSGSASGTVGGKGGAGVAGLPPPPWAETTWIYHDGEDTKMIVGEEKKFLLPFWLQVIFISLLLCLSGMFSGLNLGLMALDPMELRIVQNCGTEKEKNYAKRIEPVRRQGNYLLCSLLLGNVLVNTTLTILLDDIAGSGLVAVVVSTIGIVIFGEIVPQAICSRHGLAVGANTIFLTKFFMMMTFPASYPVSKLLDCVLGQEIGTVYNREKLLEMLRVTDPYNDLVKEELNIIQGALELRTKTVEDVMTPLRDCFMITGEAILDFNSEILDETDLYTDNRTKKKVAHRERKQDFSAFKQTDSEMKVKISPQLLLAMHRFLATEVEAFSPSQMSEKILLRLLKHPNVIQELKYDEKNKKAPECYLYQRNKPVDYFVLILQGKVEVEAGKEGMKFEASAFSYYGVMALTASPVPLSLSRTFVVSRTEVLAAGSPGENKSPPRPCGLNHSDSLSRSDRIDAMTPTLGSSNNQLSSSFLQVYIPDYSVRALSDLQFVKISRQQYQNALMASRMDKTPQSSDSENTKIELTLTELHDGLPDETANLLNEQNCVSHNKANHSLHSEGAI

[2] = target: T3, CNNM2-H523K/S269P (mouse) (UniProt Q3TWN3)
T3 sequence: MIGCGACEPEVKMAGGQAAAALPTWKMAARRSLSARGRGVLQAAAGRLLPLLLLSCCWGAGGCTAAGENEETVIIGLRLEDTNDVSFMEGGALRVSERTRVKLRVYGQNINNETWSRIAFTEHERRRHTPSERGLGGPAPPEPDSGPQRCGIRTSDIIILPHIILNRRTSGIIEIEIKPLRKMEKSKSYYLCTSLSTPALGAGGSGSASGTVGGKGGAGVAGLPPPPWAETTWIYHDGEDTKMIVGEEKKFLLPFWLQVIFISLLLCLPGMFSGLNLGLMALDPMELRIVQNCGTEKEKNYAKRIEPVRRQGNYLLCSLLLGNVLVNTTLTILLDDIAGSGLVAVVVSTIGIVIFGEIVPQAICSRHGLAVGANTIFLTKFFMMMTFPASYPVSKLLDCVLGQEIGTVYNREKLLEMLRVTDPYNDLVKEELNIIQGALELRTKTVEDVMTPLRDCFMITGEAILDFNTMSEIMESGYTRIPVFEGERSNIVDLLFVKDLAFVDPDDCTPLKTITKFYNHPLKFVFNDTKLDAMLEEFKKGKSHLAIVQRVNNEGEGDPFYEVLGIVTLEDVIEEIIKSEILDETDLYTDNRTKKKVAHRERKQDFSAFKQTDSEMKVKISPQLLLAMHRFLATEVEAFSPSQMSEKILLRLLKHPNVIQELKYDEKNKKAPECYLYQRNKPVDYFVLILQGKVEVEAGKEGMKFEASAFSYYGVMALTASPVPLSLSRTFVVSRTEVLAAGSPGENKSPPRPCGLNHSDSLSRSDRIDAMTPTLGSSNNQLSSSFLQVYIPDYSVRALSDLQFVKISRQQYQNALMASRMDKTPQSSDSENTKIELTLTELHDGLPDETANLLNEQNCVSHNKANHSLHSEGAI

outward TRPM7 current density at +100 mV in 293-M7-ΔCNNM3/4 cells with CNNM2-S269P, without vs with ARL15 (the value is with ARL15); marked reduction (CNNM2-S269P (mouse)): 123
outward TRPM7 current density at +100 mV in 293-M7-ΔCNNM3/4 cells with CNNM2-ΔCBS, without vs with ARL15 (the value is with ARL15); not different [1]: 330
outward TRPM7 current density at +100 mV in 293-M7-ΔCNNM3/4 cells with CNNM2-H523K/S269P, without vs with ARL15 (the value is with ARL15); not different [2]: 294
B1: Myc-DDK tagged ARL15 (natural protein)
chain: MSDLRITEAFLYMDYLCFRALCCKGPPPARPEYDLVCIGLTGSGKTSLLSKLCSESPDNVVSTTGFSIKAVPFQNAILNVKELGGADNIRKYWSRYYQGSQGVIFVLDSASSEDDLEAARNELHSALQHPQLCTLPFLILANHQDKPAARSVQEIKKYFELEPLARGKRWILQPCSLDDMDALKDSFSQLINLLEEKDHEAVRM
